Measured values taken from US20120329707A1 (INDIANA UNIVERSITY RESEARCH AND TECHNOLOGY, published 2012).
Numbered stars: 1 amine (or outer) side, 2 acyl side, 3 side chain; on linkers, the order of the positions; unused ones are H or OH. Square brackets hold non-standard residues; d marks the D form. Primed or numbered codes have the meaning given here. Side chains are listed from the residue outwards. Ends that are not written are not given here. * marks the point of attachment. 40K‑TE PEG″ = 40 kDa PEG bound to Cys via thioether made from an iodoacetyl-functionalised PEG; γGlu = O=C(O)[C@H](CCC(=O)[*:2])N[*:1]; Palmitoyl = CCCCCCCCCCCCCCCC(=O)*; Aib = CC(C)(N)C(=O)O

What was measured:
Experiment in all cases: cell-based or functional assay
glucagon receptor = target: glucagon receptor
GLP-1 receptor = target: GLP-1 receptor
GIP receptor = target: GIP receptor

B1: peptide of SEQ ID NO: 26 (peptide)
peptide: H[Aib]QGTFTSDK([γGlu-γGlu-Palmitoyl])SKYLD[Aib]RAAQDFVQWLK[Aib]GRG-NH2
modifications: N-terminus assumed
SMILES: CCCCCCCCCCCCCCCC(=O)N[C@@H](CCC(=O)N[C@@H](CCC(=O)NCCCC[C@H](NC(=O)[C@H](CC(=O)O)NC(=O)[C@H](CO)NC(=O)[C@@H](NC(=O)[C@H](Cc1ccccc1)NC(=O)[C@@H](NC(=O)CNC(=O)[C@H](CCC(N)=O)NC(=O)C(C)(C)NC(=O)[C@@H](N)Cc1c[nH]cn1)[C@@H](C)O)[C@@H](C)O)C(=O)N[C@@H](CO)C(=O)N[C@@H](CCCCN)C(=O)N[C@@H](Cc1ccc(O)cc1)C(=O)N[C@@H](CC(C)C)C(=O)N[C@@H](CC(=O)O)C(=O)NC(C)(C)C(=O)N[C@@H](CCCNC(=N)N)C(=O)N[C@@H](C)C(=O)N[C@@H](C)C(=O)N[C@@H](CCC(N)=O)C(=O)N[C@@H](CC(=O)O)C(=O)N[C@@H](Cc1ccccc1)C(=O)N[C@H](C(=O)N[C@@H](CCC(N)=O)C(=O)N[C@@H](Cc1c[nH]c2ccccc12)C(=O)N[C@@H](CC(C)C)C(=O)N[C@@H](CCCCN)C(=O)NC(C)(C)C(=O)NCC(=O)N[C@@H](CCCNC(=N)N)C(=O)NCC(N)=O)C(C)C)C(=O)O)C(=O)O
EC50 (nM) at glucagon receptor (glucagon receptor): 0.106 nM
EC50 (nM) at GLP-1 receptor (GLP-1 receptor): 0.004 nM
EC50 (nM) at GIP receptor (GIP receptor): 3.29 nM

B2: peptide of SEQ ID NO: 29 (peptide)
peptide: H[Aib]QGTFTSDK([γGlu-γGlu-Palmitoyl])SKYLD[Aib]RAAQDFVQWLL[Aib]GRG-NH2
modifications: N-terminus assumed
SMILES: CCCCCCCCCCCCCCCC(=O)N[C@@H](CCC(=O)N[C@@H](CCC(=O)NCCCC[C@H](NC(=O)[C@H](CC(=O)O)NC(=O)[C@H](CO)NC(=O)[C@@H](NC(=O)[C@H](Cc1ccccc1)NC(=O)[C@@H](NC(=O)CNC(=O)[C@H](CCC(N)=O)NC(=O)C(C)(C)NC(=O)[C@@H](N)Cc1c[nH]cn1)[C@@H](C)O)[C@@H](C)O)C(=O)N[C@@H](CO)C(=O)N[C@@H](CCCCN)C(=O)N[C@@H](Cc1ccc(O)cc1)C(=O)N[C@@H](CC(C)C)C(=O)N[C@@H](CC(=O)O)C(=O)NC(C)(C)C(=O)N[C@@H](CCCNC(=N)N)C(=O)N[C@@H](C)C(=O)N[C@@H](C)C(=O)N[C@@H](CCC(N)=O)C(=O)N[C@@H](CC(=O)O)C(=O)N[C@@H](Cc1ccccc1)C(=O)N[C@H](C(=O)N[C@@H](CCC(N)=O)C(=O)N[C@@H](Cc1c[nH]c2ccccc12)C(=O)N[C@@H](CC(C)C)C(=O)N[C@@H](CC(C)C)C(=O)NC(C)(C)C(=O)NCC(=O)N[C@@H](CCCNC(=N)N)C(=O)NCC(N)=O)C(C)C)C(=O)O)C(=O)O
EC50 (nM) at glucagon receptor (glucagon receptor): 0.014 nM
EC50 (nM) at GLP-1 receptor (GLP-1 receptor): 0.007 nM
EC50 (nM) at GIP receptor (GIP receptor): 1.65 nM

H[dS]QGTFTSDK([γGlu-Palmitoyl])SKYLDERAAQDFVQWLLKGRG-NH2 [peptide of SEQ ID NO: 27]
EC50 (nM) at glucagon receptor (glucagon receptor): 0.022 nM
EC50 (nM) at GLP-1 receptor (GLP-1 receptor): 0.005 nM
EC50 (nM) at GIP receptor (GIP receptor): 2.12 nM

H[Aib]QGTFTSDK([γGlu-γGlu-Palmitoyl])SKYLD[Aib]RAAQDFVQWLMDTK[dA]-OH [peptide of SEQ ID NO: 32]
EC50 (nM) at glucagon receptor (glucagon receptor): 0.007 nM
EC50 (nM) at GLP-1 receptor (GLP-1 receptor): 0.008 nM
EC50 (nM) at GIP receptor (GIP receptor): 2.08 nM

B3: peptide of SEQ ID NO: 25 (peptide)
peptide: H[Aib]QGTFTSDK([γGlu-γGlu-Palmitoyl])SKYLD[Aib]RAAQDFVQWLKDGRP-NH2
modifications: N-terminus assumed
SMILES: CCCCCCCCCCCCCCCC(=O)N[C@@H](CCC(=O)N[C@@H](CCC(=O)NCCCC[C@H](NC(=O)[C@H](CC(=O)O)NC(=O)[C@H](CO)NC(=O)[C@@H](NC(=O)[C@H](Cc1ccccc1)NC(=O)[C@@H](NC(=O)CNC(=O)[C@H](CCC(N)=O)NC(=O)C(C)(C)NC(=O)[C@@H](N)Cc1c[nH]cn1)[C@@H](C)O)[C@@H](C)O)C(=O)N[C@@H](CO)C(=O)N[C@@H](CCCCN)C(=O)N[C@@H](Cc1ccc(O)cc1)C(=O)N[C@@H](CC(C)C)C(=O)N[C@@H](CC(=O)O)C(=O)NC(C)(C)C(=O)N[C@@H](CCCNC(=N)N)C(=O)N[C@@H](C)C(=O)N[C@@H](C)C(=O)N[C@@H](CCC(N)=O)C(=O)N[C@@H](CC(=O)O)C(=O)N[C@@H](Cc1ccccc1)C(=O)N[C@H](C(=O)N[C@@H](CCC(N)=O)C(=O)N[C@@H](Cc1c[nH]c2ccccc12)C(=O)N[C@@H](CC(C)C)C(=O)N[C@@H](CCCCN)C(=O)N[C@@H](CC(=O)O)C(=O)NCC(=O)N[C@@H](CCCNC(=N)N)C(=O)N1CCC[C@H]1C(N)=O)C(C)C)C(=O)O)C(=O)O
EC50 (nM) at glucagon receptor (glucagon receptor): 0.035 nM
EC50 (nM) at GLP-1 receptor (GLP-1 receptor): 0.003 nM
EC50 (nM) at GIP receptor (GIP receptor): 2.36 nM

B4: peptide of SEQ ID NO: 31 (peptide)
peptide: H[Aib]QGTFTSDK([γGlu-γGlu-Palmitoyl])SKYLD[Aib]RAAQDFVQWLMKGRG-OH
modifications: N-terminus assumed
SMILES: CCCCCCCCCCCCCCCC(=O)N[C@@H](CCC(=O)N[C@@H](CCC(=O)NCCCC[C@H](NC(=O)[C@H](CC(=O)O)NC(=O)[C@H](CO)NC(=O)[C@@H](NC(=O)[C@H](Cc1ccccc1)NC(=O)[C@@H](NC(=O)CNC(=O)[C@H](CCC(N)=O)NC(=O)C(C)(C)NC(=O)[C@@H](N)Cc1c[nH]cn1)[C@@H](C)O)[C@@H](C)O)C(=O)N[C@@H](CO)C(=O)N[C@@H](CCCCN)C(=O)N[C@@H](Cc1ccc(O)cc1)C(=O)N[C@@H](CC(C)C)C(=O)N[C@@H](CC(=O)O)C(=O)NC(C)(C)C(=O)N[C@@H](CCCNC(=N)N)C(=O)N[C@@H](C)C(=O)N[C@@H](C)C(=O)N[C@@H](CCC(N)=O)C(=O)N[C@@H](CC(=O)O)C(=O)N[C@@H](Cc1ccccc1)C(=O)N[C@H](C(=O)N[C@@H](CCC(N)=O)C(=O)N[C@@H](Cc1c[nH]c2ccccc12)C(=O)N[C@@H](CC(C)C)C(=O)N[C@@H](CCSC)C(=O)N[C@@H](CCCCN)C(=O)NCC(=O)N[C@@H](CCCNC(=N)N)C(=O)NCC(=O)O)C(C)C)C(=O)O)C(=O)O
EC50 (nM) at glucagon receptor (glucagon receptor): 0.016 nM
EC50 (nM) at GLP-1 receptor (GLP-1 receptor): 0.007 nM
EC50 (nM) at GIP receptor (GIP receptor): 2.34 nM

H[dS]QGTFTSDK([γGlu-Palmitoyl])SKYLDERAAQDFVQWLLDGRK-NH2 [peptide of SEQ ID NO: 28]
EC50 (nM) at glucagon receptor (glucagon receptor): 0.015 nM
EC50 (nM) at GLP-1 receptor (GLP-1 receptor): 0.003 nM
EC50 (nM) at GIP receptor (GIP receptor): 2.84 nM

B5: peptide of SEQ ID NO: 30 (peptide)
peptide: H[Aib]QGTFTSDK([γGlu-Palmitoyl])SKYLD[Aib]RAAQDFVQWLLDGRG-NH2
modifications: N-terminus assumed
SMILES: CCCCCCCCCCCCCCCC(=O)N[C@@H](CCC(=O)NCCCC[C@H](NC(=O)[C@H](CC(=O)O)NC(=O)[C@H](CO)NC(=O)[C@@H](NC(=O)[C@H](Cc1ccccc1)NC(=O)[C@@H](NC(=O)CNC(=O)[C@H](CCC(N)=O)NC(=O)C(C)(C)NC(=O)[C@@H](N)Cc1c[nH]cn1)[C@@H](C)O)[C@@H](C)O)C(=O)N[C@@H](CO)C(=O)N[C@@H](CCCCN)C(=O)N[C@@H](Cc1ccc(O)cc1)C(=O)N[C@@H](CC(C)C)C(=O)N[C@@H](CC(=O)O)C(=O)NC(C)(C)C(=O)N[C@@H](CCCNC(=N)N)C(=O)N[C@@H](C)C(=O)N[C@@H](C)C(=O)N[C@@H](CCC(N)=O)C(=O)N[C@@H](CC(=O)O)C(=O)N[C@@H](Cc1ccccc1)C(=O)N[C@H](C(=O)N[C@@H](CCC(N)=O)C(=O)N[C@@H](Cc1c[nH]c2ccccc12)C(=O)N[C@@H](CC(C)C)C(=O)N[C@@H](CC(C)C)C(=O)N[C@@H](CC(=O)O)C(=O)NCC(=O)N[C@@H](CCCNC(=N)N)C(=O)NCC(N)=O)C(C)C)C(=O)O
EC50 (nM) at glucagon receptor (glucagon receptor): 0.933 nM
EC50 (nM) at GLP-1 receptor (GLP-1 receptor): 0.0082 nM
EC50 (nM) at GIP receptor (GIP receptor): 9.06 nM

B6: peptide of SEQ ID NO: 24 (peptide)
peptide: H[Aib]QGTFTSDK([γGlu-γGlu-Palmitoyl])SKYLD[Aib]RAAQDFVQWLKDGRG-NH2
modifications: N-terminus assumed
SMILES: CCCCCCCCCCCCCCCC(=O)N[C@@H](CCC(=O)N[C@@H](CCC(=O)NCCCC[C@H](NC(=O)[C@H](CC(=O)O)NC(=O)[C@H](CO)NC(=O)[C@@H](NC(=O)[C@H](Cc1ccccc1)NC(=O)[C@@H](NC(=O)CNC(=O)[C@H](CCC(N)=O)NC(=O)C(C)(C)NC(=O)[C@@H](N)Cc1c[nH]cn1)[C@@H](C)O)[C@@H](C)O)C(=O)N[C@@H](CO)C(=O)N[C@@H](CCCCN)C(=O)N[C@@H](Cc1ccc(O)cc1)C(=O)N[C@@H](CC(C)C)C(=O)N[C@@H](CC(=O)O)C(=O)NC(C)(C)C(=O)N[C@@H](CCCNC(=N)N)C(=O)N[C@@H](C)C(=O)N[C@@H](C)C(=O)N[C@@H](CCC(N)=O)C(=O)N[C@@H](CC(=O)O)C(=O)N[C@@H](Cc1ccccc1)C(=O)N[C@H](C(=O)N[C@@H](CCC(N)=O)C(=O)N[C@@H](Cc1c[nH]c2ccccc12)C(=O)N[C@@H](CC(C)C)C(=O)N[C@@H](CCCCN)C(=O)N[C@@H](CC(=O)O)C(=O)NCC(=O)N[C@@H](CCCNC(=N)N)C(=O)NCC(N)=O)C(C)C)C(=O)O)C(=O)O
EC50 (nM) at glucagon receptor (glucagon receptor): 0.021 nM
EC50 (nM) at GLP-1 receptor (GLP-1 receptor): 0.004 nM
EC50 (nM) at GIP receptor (GIP receptor): 1.46 nM

H[Aib]QGTFTSDYSKYLDERRA[Aib]EFVC(40K‑TE PEG″)WLLDT-NH2 [peptide of SEQ ID NO: 14]
EC50 (nM) at glucagon receptor (glucagon receptor): 0.365 nM
EC50 (nM) at GLP-1 receptor (GLP-1 receptor): 0.076 nM
EC50 (nM) at GIP receptor (GIP receptor): 33.7 nM
